Patent publication US6428579B1, “Implantable prosthetic devices coated with bioactive molecules” (Brown University Research Foundation, priority 1999, dated 2002)

Experiment: Surface plasmon resonance of peptide adsorption on gold
Type: physicochemical
Conditions: best fit of SPR spectra, Fresnel theory
Excerpt: Surface plasmon resonance (SPR) was produced when a beam of p-polarized laser light impinges onto the surface of a thin metal film. The light was coupled to the metal film through a prism which was mounted on a rotating turntable. At a particular angle of incidence the E-field of the laser light interacts with the surface bound free electrons of the metal film in such a way that a charge density wave was generated at the interface of the metal and air. This excitation results in a sharp reduction in the magnitude of the reflected light (measured with a photodiode). The angle at which this occurs together with the depth and half-width of the minimum were determined by the thickness and complex refractive index of the metal film. The magnitude of the evanescent field which arises from the charge density wave decays exponentially in the direction normal to the surface. […] By fitting the Fresnel equations, firstly to the date for the uncoated metal film, and then to the metal plus thin film, the thicknesses and complex refractive indices of the metal and peptide overlayer were determined. […] Another practical advantage of this method is that peptide chemistry can be determined in aqueous environments rather than the ultrahigh vacuums needed for other surface-sensitive techniques (e.g. ESCA). […]

Arg-Gly-Asp-Cys (RGDC; printed: Arg-Gly-Asp-Cys) [fibronectin related peptide, cysteine terminated]
Film thickness of peptide layer: 23-25 Å
